Test results reported in patent US20240043533A1 (NGM BIOPHARMACEUTICALS, published 2024).

Experiments:
collagen type IV = molecular target: T1, collagen type IV; assay: SPR (Biacore), collagen type IV amine-coupled on CM5 chip, LAIR1ECD-Fc injected at 125-4000 nM, 37 C
T1 construct: Control surface in the Biacore experiment; also called collagen IV
Protocol: (§1) The binding of ILT3 to fibronectin was evaluated by Biacore. Human plasma fibronectin was immobilized onto a CM5 sensor chip surface (flow cell 2) using standard amine coupling chemistry. Collagen type IV was immobilized onto flow cell 3 and used as a control. Human ILT3ECD-Fc or human LAIR1ECD-Fc were injected over both surfaces at different concentrations (125-4000 nM) at a flow rate of 50 μL/min at 37° C. Kinetic data were collected over time and fit using the simultaneous global fit equation to yield affinity constants (KD values) for each antibody.

[1] = molecular target: T2, human plasma-derived fibronectin (Millipore) (human, UniProt P02751 32-2477); assay: SPR (Biacore), human plasma fibronectin amine-coupled on CM5 chip, ECD-Fc injected, 37 C
T2 construct: Bought protein; also called human plasma fibronectin; human fibronectin
T2 sequence (P02751 32-2477 limits assumed): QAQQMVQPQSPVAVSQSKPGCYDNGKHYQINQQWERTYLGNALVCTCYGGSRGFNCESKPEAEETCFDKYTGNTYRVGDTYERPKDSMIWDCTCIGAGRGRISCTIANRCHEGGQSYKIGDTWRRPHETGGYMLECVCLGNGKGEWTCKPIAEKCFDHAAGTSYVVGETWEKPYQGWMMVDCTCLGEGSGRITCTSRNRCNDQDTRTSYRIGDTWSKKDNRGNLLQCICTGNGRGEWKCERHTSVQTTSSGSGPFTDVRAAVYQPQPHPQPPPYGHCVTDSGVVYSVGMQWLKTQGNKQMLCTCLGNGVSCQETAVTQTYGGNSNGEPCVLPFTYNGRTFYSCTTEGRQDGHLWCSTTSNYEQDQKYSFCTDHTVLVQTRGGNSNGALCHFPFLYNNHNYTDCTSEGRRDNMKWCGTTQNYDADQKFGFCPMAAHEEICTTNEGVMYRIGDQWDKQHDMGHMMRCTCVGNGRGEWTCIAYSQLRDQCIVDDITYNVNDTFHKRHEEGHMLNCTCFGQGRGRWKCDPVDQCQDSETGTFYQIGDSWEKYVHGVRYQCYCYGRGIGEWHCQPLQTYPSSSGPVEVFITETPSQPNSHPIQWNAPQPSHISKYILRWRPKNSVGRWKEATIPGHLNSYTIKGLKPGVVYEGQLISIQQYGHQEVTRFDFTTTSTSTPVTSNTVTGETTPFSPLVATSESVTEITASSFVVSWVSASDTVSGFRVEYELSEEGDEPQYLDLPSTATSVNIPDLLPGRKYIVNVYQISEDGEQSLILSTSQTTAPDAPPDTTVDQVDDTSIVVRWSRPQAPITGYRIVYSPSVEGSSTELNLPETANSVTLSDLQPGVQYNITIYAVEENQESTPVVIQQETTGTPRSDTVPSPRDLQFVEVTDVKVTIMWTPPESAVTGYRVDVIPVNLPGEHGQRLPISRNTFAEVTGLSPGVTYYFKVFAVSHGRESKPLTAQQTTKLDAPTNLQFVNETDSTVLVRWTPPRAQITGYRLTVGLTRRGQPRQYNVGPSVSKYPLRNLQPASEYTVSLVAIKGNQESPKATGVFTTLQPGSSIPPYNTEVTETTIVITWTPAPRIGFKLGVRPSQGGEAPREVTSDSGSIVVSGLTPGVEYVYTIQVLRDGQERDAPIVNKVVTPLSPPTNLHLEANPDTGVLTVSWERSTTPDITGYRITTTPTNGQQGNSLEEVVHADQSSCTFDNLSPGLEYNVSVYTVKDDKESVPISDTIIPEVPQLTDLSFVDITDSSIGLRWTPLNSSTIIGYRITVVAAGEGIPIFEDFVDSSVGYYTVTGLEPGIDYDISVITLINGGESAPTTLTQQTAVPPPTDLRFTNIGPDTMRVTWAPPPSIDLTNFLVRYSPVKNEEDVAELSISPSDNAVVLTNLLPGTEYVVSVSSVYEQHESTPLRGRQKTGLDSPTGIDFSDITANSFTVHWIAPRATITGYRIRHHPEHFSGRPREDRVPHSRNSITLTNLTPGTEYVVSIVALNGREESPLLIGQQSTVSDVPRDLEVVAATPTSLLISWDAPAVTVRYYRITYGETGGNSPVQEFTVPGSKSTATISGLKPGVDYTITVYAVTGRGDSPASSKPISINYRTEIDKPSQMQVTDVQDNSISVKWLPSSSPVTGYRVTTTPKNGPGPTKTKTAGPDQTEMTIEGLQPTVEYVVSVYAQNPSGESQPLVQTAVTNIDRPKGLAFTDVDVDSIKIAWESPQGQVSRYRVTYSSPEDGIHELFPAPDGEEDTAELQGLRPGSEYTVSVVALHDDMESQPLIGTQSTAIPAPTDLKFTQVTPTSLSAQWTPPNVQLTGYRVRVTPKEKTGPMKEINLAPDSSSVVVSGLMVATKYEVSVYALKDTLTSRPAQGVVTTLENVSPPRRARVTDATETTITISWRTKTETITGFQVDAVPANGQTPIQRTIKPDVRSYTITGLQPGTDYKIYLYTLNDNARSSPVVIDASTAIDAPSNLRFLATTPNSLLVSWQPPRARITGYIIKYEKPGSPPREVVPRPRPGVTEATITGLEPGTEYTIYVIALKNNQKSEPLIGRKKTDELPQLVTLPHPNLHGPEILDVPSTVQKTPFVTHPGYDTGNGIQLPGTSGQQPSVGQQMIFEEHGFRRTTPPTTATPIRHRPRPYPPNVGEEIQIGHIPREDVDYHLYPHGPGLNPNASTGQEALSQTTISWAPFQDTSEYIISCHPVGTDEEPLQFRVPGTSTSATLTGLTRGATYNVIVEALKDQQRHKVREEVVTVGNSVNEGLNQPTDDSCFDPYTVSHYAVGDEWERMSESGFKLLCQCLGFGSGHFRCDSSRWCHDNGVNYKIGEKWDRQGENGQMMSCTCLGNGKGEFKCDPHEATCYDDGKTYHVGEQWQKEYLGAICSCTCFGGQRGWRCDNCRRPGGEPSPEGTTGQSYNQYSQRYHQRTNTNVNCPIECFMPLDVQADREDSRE
Protocol: as §1

[2] = molecular target: ILT3 extracellular domain chimeric receptor on NFAT-GFP reporter cells (human); assay: cell-based or functional assay
ILT3 extracellular domain chimeric receptor on NFAT-GFP reporter cells (human), sequence (Q8NHJ6 22-259, change not shown): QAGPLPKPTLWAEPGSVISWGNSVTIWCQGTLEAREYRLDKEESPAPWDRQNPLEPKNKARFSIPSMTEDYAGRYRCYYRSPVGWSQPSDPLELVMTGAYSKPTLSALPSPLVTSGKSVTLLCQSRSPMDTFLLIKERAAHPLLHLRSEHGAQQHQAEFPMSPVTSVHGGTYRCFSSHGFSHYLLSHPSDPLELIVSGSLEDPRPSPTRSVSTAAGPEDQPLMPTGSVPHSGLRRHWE

LILRB3 = molecular target: T3, LILRB3 (human, UniProt O75022); assay: FACS on cells expressing human LILRB3, labeled anti-mouse Fc secondary antibody
T3 construct: expressed on the cell surface; also called human LILRB3; ILT5
Protocol: (§2) ELISA assays were used to screen antibodies against human ILT3 and human LILRA1,2,4-6. […] These antibodies were rescreened by FACS for binding to human ILT3 and cyno ILT3 expressed on HEK-293T cells. The antibodies that bound to both human and cyno ILT3 were selected. This subset of antibodies were screened by FACS against human LILRB1-5 (ILT2, ILT4, ILT5, ILT3, and LILRB5, respectively), cyno LILRB5, and human LILRA1,2,4-6. For FACS screening, each antibody was incubated with cells expressing human ILT3, cyno ILT3, one of the LILRA proteins, or one of the LILRB proteins for 30 minutes at 4° C. After washing, the cells were incubated with labeled anti-mouse Fc antibody for 30 minutes at 4° C. After washing, cells were analyzed on a flow cytometer. Antibodies were selected on the criteria of binding to human ILT3, cyno ILT3, no or limited binding to other LILRB proteins, and no or limited binding to LILRA proteins.

human LILRA6 = molecular target: T4, human LILRA6 (human, UniProt Q6PI73 24-447, limits assumed); assay: FACS on cells expressing human LILRA6, labeled anti-mouse Fc secondary antibody
T4 construct: Read out of the printed 'LILRA1,2,4-6'
T4 sequence (Q6PI73 24-447 limits assumed): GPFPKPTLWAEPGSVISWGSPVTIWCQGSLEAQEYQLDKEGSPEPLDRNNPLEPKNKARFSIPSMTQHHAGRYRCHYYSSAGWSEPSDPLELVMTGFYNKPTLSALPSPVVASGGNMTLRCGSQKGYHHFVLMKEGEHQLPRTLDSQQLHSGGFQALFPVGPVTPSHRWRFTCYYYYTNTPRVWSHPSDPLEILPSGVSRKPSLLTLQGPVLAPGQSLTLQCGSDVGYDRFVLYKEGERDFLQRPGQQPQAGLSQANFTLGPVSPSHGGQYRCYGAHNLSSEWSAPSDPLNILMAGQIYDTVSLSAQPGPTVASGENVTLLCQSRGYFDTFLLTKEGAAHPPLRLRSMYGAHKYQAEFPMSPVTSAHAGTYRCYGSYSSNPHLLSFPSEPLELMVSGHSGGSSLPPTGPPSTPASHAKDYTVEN
Protocol: as §2

LILRB4 = molecular target: T5, LILRB4; assay: FACS on cells expressing human LILRB4 (ILT3), labeled anti-mouse Fc secondary antibody
T5 construct: the construct expressed on the cells is not described further; also called human ILT3 expressed on cells for the FACS screen; ILT3
Protocol: as §2

Cyno LILRB5 = molecular target: T6, Cyno LILRB5 (Macaca fascicularis, UniProt A0A2K5VIP6); assay: FACS on cells expressing cyno LILRB5, labeled anti-mouse Fc secondary antibody
T6 construct: expressed on the cell surface; also called cynomolgus LILRB5
Protocol: as §2

human LILRA4 = molecular target: T7, human LILRA4 (human, UniProt P59901 24-499); assay: FACS on cells expressing human LILRA4, labeled anti-mouse Fc secondary antibody
T7 construct: whole, on cells
T7 sequence (P59901 24-499): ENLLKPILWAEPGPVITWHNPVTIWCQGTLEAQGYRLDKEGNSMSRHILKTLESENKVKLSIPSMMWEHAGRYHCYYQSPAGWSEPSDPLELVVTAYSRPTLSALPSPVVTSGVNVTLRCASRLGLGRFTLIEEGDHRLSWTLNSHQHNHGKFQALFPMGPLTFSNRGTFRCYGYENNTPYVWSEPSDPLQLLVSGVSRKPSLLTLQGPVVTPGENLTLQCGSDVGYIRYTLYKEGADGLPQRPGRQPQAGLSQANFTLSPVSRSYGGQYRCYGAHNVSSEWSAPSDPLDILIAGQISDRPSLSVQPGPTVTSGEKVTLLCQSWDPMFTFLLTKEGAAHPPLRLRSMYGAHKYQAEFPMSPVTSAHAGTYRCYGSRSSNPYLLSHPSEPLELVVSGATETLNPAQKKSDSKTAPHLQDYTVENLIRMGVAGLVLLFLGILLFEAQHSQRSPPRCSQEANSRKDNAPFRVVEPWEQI
Protocol: as §2

human LILRB2 = molecular target: T8, human LILRB2 (human, UniProt Q8N423 22-597); assay: FACS on cells expressing human LILRB2, labeled anti-mouse Fc secondary antibody
T8 construct: whole, on cells; also called ILT4
Protocol: as §2

LILRB5 = molecular target: T9, LILRB5 (human, UniProt O75023); assay: FACS on cells expressing human LILRB5, labeled anti-mouse Fc secondary antibody
T9 construct: expressed on the cell surface; also called human LILRB5; CD85C
T9 sequence (O75023 24-590 limits assumed): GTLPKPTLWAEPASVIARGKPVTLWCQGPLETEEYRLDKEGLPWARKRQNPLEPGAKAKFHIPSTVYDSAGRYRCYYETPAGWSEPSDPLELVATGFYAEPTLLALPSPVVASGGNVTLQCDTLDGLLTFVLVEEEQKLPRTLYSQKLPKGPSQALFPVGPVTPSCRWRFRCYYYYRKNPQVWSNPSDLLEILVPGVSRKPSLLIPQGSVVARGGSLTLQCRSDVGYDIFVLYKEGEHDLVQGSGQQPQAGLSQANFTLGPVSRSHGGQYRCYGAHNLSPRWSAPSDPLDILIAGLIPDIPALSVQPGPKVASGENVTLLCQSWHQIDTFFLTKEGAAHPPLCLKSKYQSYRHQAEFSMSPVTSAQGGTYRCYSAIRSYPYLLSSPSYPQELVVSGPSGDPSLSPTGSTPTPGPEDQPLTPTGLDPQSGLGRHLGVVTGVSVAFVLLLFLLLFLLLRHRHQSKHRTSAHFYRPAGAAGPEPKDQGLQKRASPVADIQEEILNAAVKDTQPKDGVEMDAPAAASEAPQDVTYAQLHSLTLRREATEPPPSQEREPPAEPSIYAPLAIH
Protocol: as §2

[3] = molecular target: human ILT3 expressed on myeloid cells (THP-1 cells, primary dendritic cells, macrophages) (human, UniProt Q8NHJ6 22-448); assay: cell-based or functional assay
human LILRA2 = molecular target: T10, human LILRA2 (human, UniProt Q8N149 24-483); assay: FACS on cells expressing human LILRA2, labeled anti-mouse Fc secondary antibody
T10 construct: whole, on cells
Protocol: as §2

[4] = molecular target: T11, ILT3ECD-Fc (human ILT3 extracellular domain fused to an immunoglobulin Fc region) (human, UniProt Q8NHJ6 22-259); assay: blocking of the binding of ILT3-ECD-Fc (1 µg/mL) to endogenous fibronectin on Detroit 551 cells; imaging with polyclonal anti-ILT3 and AlexaFluor 647 secondary antibody
T11 construct: also called Human ILT3ECD-Fc; not shown: immunoglobulin Fc region
Protocol: FIG. 14. ILT3 binding to endogenously expressed fibronectin. Detroit 551 cells were plated onto poly-D-lysine-coated 384-well plates at 6×10³ cells/well and incubated for two days. Monolayers were rinsed with HBSS containing Mg²⁺ and Ca²⁺. ILT3-ECD-Fc was added to the wells in the presence of ant-ILT3 antibody 16C5, anti-ILT3 antibody ch5A7, or control anti-KLH antibody. The antibodies were serially diluted 3-fold in media containing the ILT3-ECD-Fc (range of 66 nM to 0.27 nM). Cells were incubated for 1 hr at room temperature and then washed three times with HBSS and fixed with 3.7% formalin for 10 min. Monolayers were rinsed with PBS and blocked with 1% BSA in PBS before staining with Hoechst stain and a commercially available polyclonal anti-ILT3 antibody. An AlexaFluor 647-conjugated rabbit anti-goat Fc secondary antibody was added, cells were imaged, and the level of fluorescence was quantified using a CellInsight imaging system.
The Detroit 551 cell line is composed of human skin fibroblasts established from normal fetal tissue. These cells have endogenously produced fibronectin bound to receptors on their surface. […] An AlexaFluor 647-conjugated rabbit anti-goat Fc secondary antibody (Jackson ImmunoResearch Labs) was added, cells were imaged, and the level of fluorescence was quantified using a Celllnsight imaging system.

human LILRA1 = molecular target: T12, human LILRA1 (human, UniProt O75019 17-489); assay: FACS on cells expressing human LILRA1, labeled anti-mouse Fc secondary antibody
T12 construct: whole, on cells
T12 sequence (O75019 17-489): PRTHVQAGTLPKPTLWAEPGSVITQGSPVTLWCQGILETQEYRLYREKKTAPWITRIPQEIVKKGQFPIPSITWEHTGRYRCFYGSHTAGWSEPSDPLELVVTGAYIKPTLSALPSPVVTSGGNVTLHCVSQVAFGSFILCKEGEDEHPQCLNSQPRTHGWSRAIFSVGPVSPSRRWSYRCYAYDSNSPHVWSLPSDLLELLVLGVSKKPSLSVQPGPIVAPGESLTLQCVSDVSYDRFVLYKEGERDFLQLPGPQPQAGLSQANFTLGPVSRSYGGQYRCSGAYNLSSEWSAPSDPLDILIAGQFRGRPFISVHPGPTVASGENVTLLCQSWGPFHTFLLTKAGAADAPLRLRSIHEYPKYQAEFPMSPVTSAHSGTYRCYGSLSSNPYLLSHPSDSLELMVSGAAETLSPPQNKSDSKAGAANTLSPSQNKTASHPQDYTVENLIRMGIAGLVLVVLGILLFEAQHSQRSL
Protocol: as §2

human LILRA5 = molecular target: T13, human LILRA5 (human, UniProt A6NI73 42-299); assay: FACS on cells expressing human LILRA5, labeled anti-mouse Fc secondary antibody
T13 construct: whole, on cells
T13 sequence (A6NI73 42-299): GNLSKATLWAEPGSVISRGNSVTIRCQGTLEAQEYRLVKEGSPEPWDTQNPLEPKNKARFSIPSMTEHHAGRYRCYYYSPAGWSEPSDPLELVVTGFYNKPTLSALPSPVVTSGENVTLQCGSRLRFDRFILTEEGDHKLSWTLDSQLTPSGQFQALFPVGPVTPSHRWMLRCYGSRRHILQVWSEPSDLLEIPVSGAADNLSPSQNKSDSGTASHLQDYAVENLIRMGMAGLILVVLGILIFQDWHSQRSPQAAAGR
Protocol: as §2

[5] = molecular target: T14, extracellular domain of human ILT3 (huILT3-ECD) (human, UniProt Q8NHJ6 22-259); assay: SPR (Biacore), antibody captured via anti-Fc on CM5 chip, soluble ILT3-ECD injected, 37 C
T14 construct: also called human ILT3-ECD
Protocol: (§3) The binding affinities of anti-ILT3 antibodies to human ILT3 and cyno ILT3 were measured using a Biacore system (GE Healthcare LifeSciences). Briefly, anti-Fc antibody (Sigma-Aldrich) was immobilized on all four flow cells of a CM5 chip using amine coupling reagents (GE Healthcare LifeSciences). Antibodies were captured on flow cells 2, 3, and 4 using flow cell 1 as a reference. Concentrations ranging from 3.3-10 nM of human or cyno ILT3-ECD were injected at a flow rate of 50 μL/min at 37° C. Kinetic data were collected over time and fit using the simultaneous global fit equation to yield affinity constants (KD values) for each antibody.

[6] = molecular target: T15, extracellular domain of cyno ILT3 (cynoILT3-ECD) (cynomolgus monkey); assay: as above
T15 chain: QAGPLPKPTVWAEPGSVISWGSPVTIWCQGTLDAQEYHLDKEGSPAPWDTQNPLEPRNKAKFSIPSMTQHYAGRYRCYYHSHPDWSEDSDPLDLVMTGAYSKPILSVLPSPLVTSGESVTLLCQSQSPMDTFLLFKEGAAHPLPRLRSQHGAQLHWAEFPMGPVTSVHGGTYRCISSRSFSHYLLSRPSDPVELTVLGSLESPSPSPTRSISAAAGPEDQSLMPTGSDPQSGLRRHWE
Protocol: as §3

B1: human LAIR1ECD-Fc (Fc fusion, UniProt Q6GTX8 22-165, looked up)
chain: QEEDLPRPSISAEPGTVIPLGSHVTFVCRGPVGVQTFRLERDSRSTYNDTEDVSQASPSESEARFRIDSVREGNAGLYRCIYYKPPKWSEQSDYLELLVKESSGGPDSPDTEPGSSAGPTQRPSDNSHNEHAPASQGLKAEHLY
notes: extracellular domain; not shown: Fc region
Kd (collagen type IV): ≥ 5000 nM
binding result [1]: no binding (tested: 125-4000 nM)

B2: anti-ILT3 antibody 16C5 (antibody, V domains shown)
VH: EVQLQQSGPELVKPGASVKISCKASGYTFTDYNMDWVKQSHGKSLEWIGYIYPSNGGTGYNQKFKSKATLTVDKSSNTAYMELHSLTSEDSAVYYCARVPYYDYLYYYAMDYWGQGTSVTVSS
VL: QIVLSQSPAILSASPGEKVTMACRASSSVSFMHWYQQKPGSSPQPWIYATSNLASGVPARFSGSGSGTSYSLTISRVEAEDAATYYCQQWSTNPYMYTFGGGTKLEIK
notes: Mouse monoclonal antibody from hybridoma
IC50 (read off the curve) [2]: ~0.2 nM
binding result (LILRB3): no binding (tested: log [Ab] about -7.2 M (about 6e-8 M))
binding result (human LILRA6): no binding (tested: log [Ab] about -7.2 M (about 6e-8 M))
binding result (LILRB4): binds
EC50 (read off the curve) (Cyno LILRB5): ~0.9 nM
binding result (human LILRA4): no binding (tested: log [Ab] about -7.2 M (about 6e-8 M))
binding result (human LILRB2): no binding (tested: log [Ab] about -7.2 M (about 6e-8 M))
binding result (LILRB5): no binding (tested: log [Ab] about -7.2 M (about 6e-8 M))
EC50 (read off the curve) [3]: ~2 nM
binding result (human LILRA2): no binding (tested: log [Ab] about -7.2 M (about 6e-8 M))
binding result [4]: binds
binding result (human LILRA1): no binding (tested: log [Ab] about -7.2 M (about 6e-8 M))
binding result (human LILRA5): binds
Kd [5]: 1.8 nM
koff [5]: 0.0002 s⁻¹
kon [5]: 110000 M⁻¹ s⁻¹
Kd [6]: 0.31 nM
koff [6]: 9e-05 s⁻¹
kon [6]: 290000 M⁻¹ s⁻¹
